Assay results reported in PMC8818087 (Nature cancer, 2021).

B1: wild type MTDH (MTDH-WT) minimal peptide (peptide)
peptide: PNSDWNAPAEEWGNW
B2: CFP-MTDH (386-407aa) (domain or fragment)
chain: SSADPNSDWNAPAEEWGNWVDE

Key:
[1] = target: T1, purified SND1 (16-339aa) protein (UniProt Q7KZF4 16-339); test: MST
T1 sequence: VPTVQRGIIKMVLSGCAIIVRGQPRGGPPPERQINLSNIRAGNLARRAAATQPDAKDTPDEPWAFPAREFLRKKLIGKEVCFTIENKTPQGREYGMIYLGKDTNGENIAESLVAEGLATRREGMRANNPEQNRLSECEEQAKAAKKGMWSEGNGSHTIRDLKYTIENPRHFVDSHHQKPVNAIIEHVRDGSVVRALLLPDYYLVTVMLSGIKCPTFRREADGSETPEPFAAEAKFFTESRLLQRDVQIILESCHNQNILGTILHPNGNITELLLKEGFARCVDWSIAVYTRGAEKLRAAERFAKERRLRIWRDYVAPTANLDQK

TC-SND1 (16-339aa) = target: T2, TC-SND1 (16-339aa) (UniProt Q7KZF4 16-339, FlAsH-EDT2 labelling reagent on the tetracysteine tag); test: FRET or BRET
T2 sequence: T1 sequence

Row | Binder | binding result [1] | binding result (TC-SND1 (16-339aa))
1 | B1 | binds | binds
2 | B2 |  | binds
